Laboratory results from US20170204158A1 (Regeneron, published 2017).
Values joined by “and” are separate entries in the source; they are usually repeats but may differ in a detail not shown here. Equal entries are not always repeated.

Molecular target: T1, human ST2 (amino acids 1-556 of accession number NP_057316) on HEK293/hST2/NFkB-luciferase cells (human, UniProt Q01638 19-556)
T1 sequence (looked up): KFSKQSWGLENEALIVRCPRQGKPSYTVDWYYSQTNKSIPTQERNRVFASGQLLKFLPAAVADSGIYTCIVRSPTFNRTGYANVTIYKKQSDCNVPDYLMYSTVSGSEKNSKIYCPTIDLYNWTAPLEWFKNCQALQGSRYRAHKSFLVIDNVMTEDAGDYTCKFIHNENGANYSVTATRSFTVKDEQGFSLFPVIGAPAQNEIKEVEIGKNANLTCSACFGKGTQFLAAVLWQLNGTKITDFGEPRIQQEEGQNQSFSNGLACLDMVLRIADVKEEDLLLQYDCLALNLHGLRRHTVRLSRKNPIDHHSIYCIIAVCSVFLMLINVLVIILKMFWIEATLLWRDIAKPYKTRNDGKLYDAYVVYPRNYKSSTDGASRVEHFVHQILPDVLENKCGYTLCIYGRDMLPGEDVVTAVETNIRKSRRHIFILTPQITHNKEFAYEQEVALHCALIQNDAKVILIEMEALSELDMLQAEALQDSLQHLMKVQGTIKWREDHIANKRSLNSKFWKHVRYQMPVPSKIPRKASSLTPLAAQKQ
Experiment: cell-based or functional assay

B1: monkey IL-33 expressed with C-terminal hexahistidine tag (MfIL-33-6His) (ligand)
chain: SITGISPITESLASLSTYNDQSITFALEDESYEIYVEDLKKDKKKDKVLLSYYESQHPSSESGDGVDGKMLMVTLSPTKDFWLQANNKEHSVELHKCEKPLPDQAFFVLHNRSFNCVSFECKTDPGVFIGVKDNHLALIKVDYSENLGSENILFKLSEILEHHHHHH
- EC50 (M), activation of HEK293/hST2/NFkB-luciferase cells: 1.7e-12 M and 1.3e-12 M
